The target in the assay is T1, HLA-A*02:01 (human).
T1 construct: complexes captured on streptavidin plates and detected with anti-b2m; also called peptide-receptive MHC molecules
Briefly: UV-exchange MHC ELISA; ++ = yield >=20%. An excerpt: Candidate peptides for T cell based therapies according to the present invention were further tested for their MHC binding capacity (affinity). The individual peptide-MHC complexes were produced by UV-ligand exchange, where a UV-sensitive peptide is cleaved upon UV-irradiation, and exchanged with the peptide of interest as analyzed. Only peptide candidates that can effectively bind and stabilize the peptide-receptive MHC molecules prevent dissociation of the MHC complexes. To determine the yield of the exchange reaction, an ELISA was performed based on the detection of the light chain (β2m) of stabilized MHC complexes. The assay was performed as generally described in Rodenko et al. (Rodenko et al., 2006).
96 well MAXISorp plates (NUNC) were coated over night with 2 ug/ml streptavidin in PBS at room temperature, washed 4× and blocked for 1 h at 37° C. in 2% BSA containing blocking buffer. Refolded HLA-A*02:01/MLA-001 monomers served as standards, covering the range of 15-500 ng/ml. Peptide-MHC monomers of the UV-exchange reaction were diluted 100 fold in blocking buffer. Samples were incubated for 1 h at 37° C., washed four times, incubated with 2 ug/ml HRP conjugated anti-β2m for 1 h at 37° C., washed again and detected with TMB solution that is stopped with […]. Absorption was measured at 450 nm. […]
For orientation: ELISA stands for enzyme-linked immunosorbent assay.

B1: ALLNAILHSA (SEQ ID NO: 132) (peptide)
peptide: ALLNAILHSA
Turning to B1, the peptide exchange yield fell in the range of 20 to 50%.

The values are drawn from patent US20160339092A1 (IMMATICS BIOTECHNOLOGIES, published 2016).
